According to US20230190752A1 (WASHINGTON UNIVERSITY, published 2023):

Molecular target: T1, Valosin-Containing Protein phosphorylated at Ser784 (pSer^784-VCP), endogenous, from genotoxin-treated human … (human, UniProt P55072 2-806, phosphoserine at 784)
T1 construct: Endogenous protein in lysates or fixed cells (HeLa, MDA-MB-231, U2OS and others) after SN38, etoposide or HU; it is tied to the assayed protein only through that definition; also called DNA-damage-induced ~100-kDa protein
Assay: co-IP, western blot (FIG. 15B, 14B)
Procedure: Antibody-bound proteins were analyzed by Western blot for K48-ubiquitin, total VCP and pSer784-VCP. Same amount of control IgG was used to bind the etoposide-treated HeLa samples to control for non-specific binding. […] Samples were analyzed by Western blot for K48-ubiquitin, NPL4, and UFD1. Total VCP bound by the antibodies were visualized by silver staining. […] YFP-FLAG was expressed as a control.
Ser784 Phosphorylation Decreases VCP Association with NPL4/UFD1 and Polyubiquitinated Proteins: To study the regulatory mechanism of Ser784 phosphorylation, the effects on the VCP interaction with protein substrates were first examined. Total VCP (by a pan-VCP antibody) or pSer784-VCP (by 3E4) from etoposide or HU-treated HeLa cell lysates were immunoprecipitated and immunoblotted for co-absorbed K48-polyubiquitinated proteins. […] To better separate pSer784-VCP from unphosphorylated VCP, sequential pull-downs were performed from etoposide-treated HeLa cell lysates to first deplete pSer784-VCP using 3E4 and subsequently capture the remaining unphosphorylated VCP by the pan-antibody. […] Based on the levels of VCP in the input and supernatants after each pull-down, it is evident that Ser784 is phosphorylated at high stoichiometry in response to DNA damage (>50% of total VCP after overnight etoposide treatment) (FIG. 15A).

T1 sequence (P55072 2-806 limits assumed): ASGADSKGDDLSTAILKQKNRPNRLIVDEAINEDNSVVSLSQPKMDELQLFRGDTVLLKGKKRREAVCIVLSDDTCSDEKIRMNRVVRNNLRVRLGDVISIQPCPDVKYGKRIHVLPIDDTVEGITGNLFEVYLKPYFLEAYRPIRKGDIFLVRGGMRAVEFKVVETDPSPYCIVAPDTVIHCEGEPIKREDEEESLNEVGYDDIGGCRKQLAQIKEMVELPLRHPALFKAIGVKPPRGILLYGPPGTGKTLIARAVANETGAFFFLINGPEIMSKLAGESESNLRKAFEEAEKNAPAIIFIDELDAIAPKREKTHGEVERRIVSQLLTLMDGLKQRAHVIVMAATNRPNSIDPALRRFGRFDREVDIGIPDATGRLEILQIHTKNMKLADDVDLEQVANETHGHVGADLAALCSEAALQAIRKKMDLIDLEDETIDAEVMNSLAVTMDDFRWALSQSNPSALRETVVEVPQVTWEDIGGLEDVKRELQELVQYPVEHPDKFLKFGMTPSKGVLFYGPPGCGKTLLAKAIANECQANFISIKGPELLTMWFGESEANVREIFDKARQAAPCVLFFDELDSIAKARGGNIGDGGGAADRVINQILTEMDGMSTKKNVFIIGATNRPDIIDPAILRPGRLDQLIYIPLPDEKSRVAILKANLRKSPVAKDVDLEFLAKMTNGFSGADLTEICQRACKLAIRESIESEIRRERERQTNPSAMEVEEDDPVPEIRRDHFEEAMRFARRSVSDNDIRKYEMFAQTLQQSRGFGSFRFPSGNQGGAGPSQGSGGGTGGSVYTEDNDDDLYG

B1: NPL4 (other, UniProt Q8TAT6 2-608, looked up)
chain: AESIIIRVQSPDGVKRITATKRETAATFLKKVAKEFGFQNNGFSVYINRNKTGEITASSNKSLNLLKIKHGDLLFLFPSSLAGPSSEMETSVPPGFKVFGAPNVVEDEIDQYLSKQDGKIYRSRDPQLCRHGPLGKCVHCVPLEPFDEDYLNHLEPPVKHMSFHAYIRKLTGGADKGKFVALENISCKIKSGCEGHLPWPNGICTKCQPSAITLNRQKYRHVDNIMFENHTVADRFLDFWRKTGNQHFGYLYGRYTEHKDIPLGIRAEVAAIYEPPQIGTQNSLELLEDPKAEVVDEIAAKLGLRKVGWIFTDLVSEDTRKGTVRYSRNKDTYFLSSEECITAGDFQNKHPNMCRLSPDGHFGSKFVTAVATGGPDNQVHFEGYQVSNQCMALVRDECLLPCKDAPELGYAKESSSEQYVPDVFYKDVDKFGNEITQLARPLPVEYLIIDITTTFPKDPVYTFSISQNPFPIENRDVLGETQDFHSLATYLSQNTSSVFLDTISDFHLLLFLVTNEVMPLQDSISLLLEAVRTRNEELAQTWKRSEQWATIEQLCSTVGGQLPGLHEYGAVGGSTHTATAAMWACQHCTFMNQPGTGHCEMCSLPRT
notes: Detected by western blot in VCP co-immunoprecipitates; also called cofactor NPL4
binding result: binds
